Assay results from patent US20160347862A1 (Janssen / Centocor, published 2016).

Columns and labels:
human thrombin [1] = target: T1, human thrombin (human, UniProt P00734 314-363; P00734 364-622); assay: cell-based or functional assay
human thrombin [2] = target: T1, human thrombin; assay: cell-based or functional assay; remark: listed apart in the source
human thrombin [3] = target: T1, human thrombin; assay: estimated from the rate of S2238 hydrolysis by thrombin
prothrombin = prothrombin (Homo sapiens (Human), UniProt P00734 44-622); assay: pull-down with IgA-binding lectin agarose; supernatant on non-reducing SDS-PAGE
human thrombin [4] = target: T1, human thrombin; assay: Biacore, antibody as ligand, after exposure to light
human thrombin [5] = target: T1, human thrombin; assay: Biacore, antibody as ligand, after storage for one month at 4° C.
human thrombin [6] = target: T1, human thrombin; assay: ELISA binding to thrombin, four-parameter fit (log(agonist) vs. response -- Variable slope)
human thrombin [7] = target: T1, human thrombin; assay: Biacore, antibody as ligand, ambient condition; Control (ambient condition), not 4° C. storage or light exposure

Row | thrombin hydrolysis of FVIII (feedback activation of thrombin via Xase complex) (human thrombin [1]) | thrombin hydrolysis of platelet receptor PAR-1 peptide (activation of platelets) (human thrombin [1]) | EC50 (read off the curve), Vi/V0 of S2238 cleavage by thrombin (human thrombin [2]) | Kd (human thrombin [3]) | binding result (prothrombin) | Kd (human thrombin [4]) | Kd (human thrombin [5]) | EC50 (human thrombin [6]) | Kd (human thrombin [7]) | Binder
1 | 7 fold | 15 fold | ~10 nM | ~12 nM | no binding | – | – | – | – | wild-type anti-exosite 1 IgA antibody (antibody, V domains shown, also called anti-thrombin IgA; anti-IIa IgA) VH: QVQLIQSGSAVKKPGASVRVSCKVSGYTLTEAAIHWVRQAPGKGLEWMGGLDPQDGETVYAQQFKGRVTMTEDRSTDTAYMEVNNLRSEDTATYYCTTGDFSEFEPFSMDYFHFWGQGTVVTVAS VL: EIVLTQSPATLSLSPGERATLSCRASQNVSSFLAWYQHKPGQAPRLLIYDASSRATDIPIRFSGSGSGTDFTLTISGLEPEDFAVYYCQQRRSWPPLTFGGGTKVEIKR
2 | – | – | – | – | – | 1.8 nM | 1.74 nM | 0.0126 mg/L | 1.77 nM | synthetic anti-exosite 1 IgG S30A variant antibody (antibody, V domains shown, also called ichorcumab S30A; ichorcumab) VH: QVQLIQSGSAVKKPGASVRVSCKVSGYTLTEAAIHWVRQAPGKGLEWMGGLDPQDGETVYAQQFKGRVTMTEDRSTDTAYMEVNNLRSEDTATYYCTTGDFSEFEPFSMDYFHFWGQGTVVTVAS VL: EIVLTQSPATLSLSPGERATLSCRASQNVASFLAWYQHKPGQAPRLLIYDASSRATDIPIRFSGSGSGTDFTLTISGLEPEDFAVYYCQQRRSWPPLTFGGGTKVEIKR
